Measured values from patent US20240327509A1, “HUMAN CXCLI6 ANTIBODIES AND THE USE THEREOF” (CELLUS,INC., priority 2021, published 2024).

T1: Recombinant human CXCL16 (rhCXCL16) protein (human, UniProt Q9H2A7 30-118, limits assumed)
T1 construct: Bought recombinant protein (976-CX, R&D systems); also called CXCL16 antigen; 976-CX (R&D systems)
T1 sequence: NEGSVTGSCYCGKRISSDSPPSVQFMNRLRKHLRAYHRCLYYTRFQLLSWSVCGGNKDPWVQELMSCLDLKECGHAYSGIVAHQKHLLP


Each binder was assayed against T1, Recombinant human CXCL16 (rhCXCL16) … (assay: BLI (ForteBio), antibody captured on biosensor, rhCXCL16 in solution).
Procedure: The binding characteristics of 25 CXCL16 antibodies were analyzed using the bio-light interferometry (ForteBio). All antibodies were diluted in freshly prepared running buffer. Antibodies were immobilized onto the surface of a series of biosensors using the capture methods at 0.3 μg/mL. Recombinant human CXCL16 (rhCXCL16) protein (100 nM) was passed over the surface to generate a binding response for 10 minutes. Binding data for the antibody and antigen interactions were collected at 25° C. on the biosensors. Then, the running buffer was passed for 10 minutes to dissociate them. The association constant (kₐ) and the dissociation constant (kₐ) were observed, and the equilibrium binding constant (KD) was calculated. […] R2: The value indicating how well the fit and experimental data correlate; X²: The measure of error between the experimental data and fitted line.

Binder | binding result
HC1LC5 (antibody, human IgG1, kappa, V domains shown, Humanized variant; human IgG1 / kappa constant domains) VH: QVQLVESGGGVVQPGGSLRLSCAASGFTFSNAVMNWVRQAPGKGLEWVARIRTKPNNYATFYADSVKGRFTFSRDNSKTMLYLQMNSLRAEDTAVYYCTAWTTEGIYWGQGTLVTVSS VL: DIVMTQSPSSLAVSAGERATINCKSSQSLLYSGNQKNYLAWYQQKPGQSPKLLIYWASTRQSGVPDRFIGSGSGTDFTLTISSLQAEDVAIYYCQQYYDTPWTFGGGTKLELKR | no binding (tested: 100 nM rhCXCL16)
HC1LC2 (antibody, human IgG1, kappa, V domains shown, Humanized variant; human IgG1 / kappa constant domains) VH: QVQLVESGGGVVQPGGSLRLSCAASGFTFSNAVMNWVRQAPGKGLEWVARIRTKPNNYATFYADSVKGRFTFSRDNSKTMLYLQMNSLRAEDTAVYYCTAWTTEGIYWGQGTLVTVSS VL: DIVMTQSPSSLAVSLGETATINCKSSQSLLYSGNQKNYLAWYQQKPGQPPKLLIYWASTRQSGVPDRFTGSGAGTDFTLTISSVQAEDLAIYYCQQYYDTPWTFGGGTKVEIKR | no binding (tested: 100 nM rhCXCL16)
HC1LC4 (antibody, human IgG1, kappa, V domains shown, Humanized variant; human IgG1 / kappa constant domains) VH: QVQLVESGGGVVQPGGSLRLSCAASGFTFSNAVMNWVRQAPGKGLEWVARIRTKPNNYATFYADSVKGRFTFSRDNSKTMLYLQMNSLRAEDTAVYYCTAWTTEGIYWGQGTLVTVSS VL: DIQMTQSPSSLSASVGDRVTITCKSSQSLLYSGNQKNYLAWYQQKPGQSPKLLIYWASTRQSGVPSRFSGSGSGTDFTLTISSLQPEDLAIYYCQQYYDTPWTFGGGTKLELKR | no binding (tested: 100 nM rhCXCL16)
HC4LC2 (antibody, human IgG1, kappa, V domains shown, Humanized variant; human IgG1 / kappa constant domains) VH: EVQLVESGGGLVKPGGSLRLSCAASGFTFSNAVMNWVRQAPGKGLEWVARIRTKPNNYATFYADSVKGRFTFSRDDSKNTLYLQMNSLKTEDTAVYYCTAWTTEGIYWGQGTTVTVSS VL: DIVMTQSPSSLAVSLGETATINCKSSQSLLYSGNQKNYLAWYQQKPGQPPKLLIYWASTRQSGVPDRFTGSGAGTDFTLTISSVQAEDLAIYYCQQYYDTPWTFGGGTKVEIKR | no binding (tested: 100 nM rhCXCL16)
HC2LC2 (antibody, human IgG1, kappa, V domains shown, Humanized variant; human IgG1 / kappa constant domains) VH: AVQLVESGGGLVQPGGSLKISCAASGFTFSNAVMNWVRQASGKGLEWVGRIRTKPNNYATFYADSVKGRFTISRDDSKNTAYLQMNSLKTEDTAMYYCTAWTTEGIYWGQGTLVTVSS VL: DIVMTQSPSSLAVSLGETATINCKSSQSLLYSGNQKNYLAWYQQKPGQPPKLLIYWASTRQSGVPDRFTGSGAGTDFTLTISSVQAEDLAIYYCQQYYDTPWTFGGGTKVEIKR | no binding (tested: 100 nM rhCXCL16)
HC1LC1 (antibody, human IgG1, kappa, V domains shown, Humanized variant; human IgG1 / kappa constant domains) VH: QVQLVESGGGVVQPGGSLRLSCAASGFTFSNAVMNWVRQAPGKGLEWVARIRTKPNNYATFYADSVKGRFTFSRDNSKTMLYLQMNSLRAEDTAVYYCTAWTTEGIYWGQGTLVTVSS VL: DIVMTQSPDSLAVSAGETVTINCKSSQSLLYSGNQKNYLAWYQQKPGQSPKLLIYWASTRQSGVPDRFSGSGSGTDFTLTISSVQAEDVAVYYCQQYYDTPWTFGGGTKVEIKR | no binding (tested: 100 nM rhCXCL16)
HC1LC3 (antibody, human IgG1, kappa, V domains shown, Humanized variant; human IgG1 / kappa constant domains) VH: QVQLVESGGGVVQPGGSLRLSCAASGFTFSNAVMNWVRQAPGKGLEWVARIRTKPNNYATFYADSVKGRFTFSRDNSKTMLYLQMNSLRAEDTAVYYCTAWTTEGIYWGQGTLVTVSS VL: DIQMTQSPSSLSASVGDRVTITCKSSQSLLYSGNQKNYLAWYQQKPGQSPKLLIYWASTRQSGVPDRFSGSGSGTDFTLTISSLQAEDFATYYCQQYYDTPWTFGGGTKVEIKR | no binding (tested: 100 nM rhCXCL16)
HC4LC4 (antibody, human IgG1, kappa, V domains shown, Humanized variant; human IgG1 / kappa constant domains) VH: EVQLVESGGGLVKPGGSLRLSCAASGFTFSNAVMNWVRQAPGKGLEWVARIRTKPNNYATFYADSVKGRFTFSRDDSKNTLYLQMNSLKTEDTAVYYCTAWTTEGIYWGQGTTVTVSS VL: DIQMTQSPSSLSASVGDRVTITCKSSQSLLYSGNQKNYLAWYQQKPGQSPKLLIYWASTRQSGVPSRFSGSGSGTDFTLTISSLQPEDLAIYYCQQYYDTPWTFGGGTKLELKR | no binding (tested: 100 nM rhCXCL16)
HC4LC3 (antibody, human IgG1, kappa, V domains shown, Humanized variant; human IgG1 / kappa constant domains) VH: EVQLVESGGGLVKPGGSLRLSCAASGFTFSNAVMNWVRQAPGKGLEWVARIRTKPNNYATFYADSVKGRFTFSRDDSKNTLYLQMNSLKTEDTAVYYCTAWTTEGIYWGQGTTVTVSS VL: DIQMTQSPSSLSASVGDRVTITCKSSQSLLYSGNQKNYLAWYQQKPGQSPKLLIYWASTRQSGVPDRFSGSGSGTDFTLTISSLQAEDFATYYCQQYYDTPWTFGGGTKVEIKR | no binding (tested: 100 nM rhCXCL16)
HC3LC2 (antibody, human IgG1, kappa, V domains shown, Humanized variant; human IgG1 / kappa constant domains) VH: EVQLVESGGGLVQPGGSLKLSCAASGFTFSNAVMNWVRQAPGKGLEWVGRIRTKPNNYATFYADSVKGRFTFSRDDSKNTAYLQMNILKTEDTAMYYCTAWTTEGIYWGQGTTVTVSS VL: DIVMTQSPSSLAVSLGETATINCKSSQSLLYSGNQKNYLAWYQQKPGQPPKLLIYWASTRQSGVPDRFTGSGAGTDFTLTISSVQAEDLAIYYCQQYYDTPWTFGGGTKVEIKR | no binding (tested: 100 nM rhCXCL16)
HC2LC5 (antibody, human IgG1, kappa, V domains shown, Humanized variant; human IgG1 / kappa constant domains) VH: AVQLVESGGGLVQPGGSLKISCAASGFTFSNAVMNWVRQASGKGLEWVGRIRTKPNNYATFYADSVKGRFTISRDDSKNTAYLQMNSLKTEDTAMYYCTAWTTEGIYWGQGTLVTVSS VL: DIVMTQSPSSLAVSAGERATINCKSSQSLLYSGNQKNYLAWYQQKPGQSPKLLIYWASTRQSGVPDRFIGSGSGTDFTLTISSLQAEDVAIYYCQQYYDTPWTFGGGTKLELKR | no binding (tested: 100 nM rhCXCL16)
HC5LC4 (antibody, human IgG1, kappa, V domains shown, Humanized variant; human IgG1 / kappa constant domains) VH: EVQLVESGGGLVQPGGSLKLSCAASGFTFSNAVMNWVRQASGKGLEWVARIRTKPNNYATFYADSVKGRFTFSRDDSKNTAYLQMNSLKTEDTAMYYCTAWTTEGIYWGQGTLVTVSS VL: DIQMTQSPSSLSASVGDRVTITCKSSQSLLYSGNQKNYLAWYQQKPGQSPKLLIYWASTRQSGVPSRFSGSGSGTDFTLTISSLQPEDLAIYYCQQYYDTPWTFGGGTKLELKR | no binding (tested: 100 nM rhCXCL16)
HC3LC1 (antibody, human IgG1, kappa, V domains shown, Humanized variant; human IgG1 / kappa constant domains) VH: EVQLVESGGGLVQPGGSLKLSCAASGFTFSNAVMNWVRQAPGKGLEWVGRIRTKPNNYATFYADSVKGRFTFSRDDSKNTAYLQMNILKTEDTAMYYCTAWTTEGIYWGQGTTVTVSS VL: DIVMTQSPDSLAVSAGETVTINCKSSQSLLYSGNQKNYLAWYQQKPGQSPKLLIYWASTRQSGVPDRFSGSGSGTDFTLTISSVQAEDVAVYYCQQYYDTPWTFGGGTKVEIKR | no binding (tested: 100 nM rhCXCL16)

Further lines, results first:

binding result | Binder
no binding (tested: 100 nM rhCXCL16) | HC3LC5 (antibody, human IgG1, kappa, V domains shown, Humanized variant; human IgG1 / kappa constant domains) VH: EVQLVESGGGLVQPGGSLKLSCAASGFTFSNAVMNWVRQAPGKGLEWVGRIRTKPNNYATFYADSVKGRFTFSRDDSKNTAYLQMNILKTEDTAMYYCTAWTTEGIYWGQGTTVTVSS VL: DIVMTQSPSSLAVSAGERATINCKSSQSLLYSGNQKNYLAWYQQKPGQSPKLLIYWASTRQSGVPDRFIGSGSGTDFTLTISSLQAEDVAIYYCQQYYDTPWTFGGGTKLELKR
no binding (tested: 100 nM rhCXCL16) | HC2LC1 (antibody, human IgG1, kappa, V domains shown, Humanized variant; human IgG1 / kappa constant domains) VH: AVQLVESGGGLVQPGGSLKISCAASGFTFSNAVMNWVRQASGKGLEWVGRIRTKPNNYATFYADSVKGRFTISRDDSKNTAYLQMNSLKTEDTAMYYCTAWTTEGIYWGQGTLVTVSS VL: DIVMTQSPDSLAVSAGETVTINCKSSQSLLYSGNQKNYLAWYQQKPGQSPKLLIYWASTRQSGVPDRFSGSGSGTDFTLTISSVQAEDVAVYYCQQYYDTPWTFGGGTKVEIKR
no binding (tested: 100 nM rhCXCL16) | HC4LC5 (antibody, human IgG1, kappa, V domains shown, Humanized variant; human IgG1 / kappa constant domains) VH: EVQLVESGGGLVKPGGSLRLSCAASGFTFSNAVMNWVRQAPGKGLEWVARIRTKPNNYATFYADSVKGRFTFSRDDSKNTLYLQMNSLKTEDTAVYYCTAWTTEGIYWGQGTTVTVSS VL: DIVMTQSPSSLAVSAGERATINCKSSQSLLYSGNQKNYLAWYQQKPGQSPKLLIYWASTRQSGVPDRFIGSGSGTDFTLTISSLQAEDVAIYYCQQYYDTPWTFGGGTKLELKR
no binding (tested: 100 nM rhCXCL16) | HC3LC3 (antibody, human IgG1, kappa, V domains shown, Humanized variant; human IgG1 / kappa constant domains) VH: EVQLVESGGGLVQPGGSLKLSCAASGFTFSNAVMNWVRQAPGKGLEWVGRIRTKPNNYATFYADSVKGRFTFSRDDSKNTAYLQMNILKTEDTAMYYCTAWTTEGIYWGQGTTVTVSS VL: DIQMTQSPSSLSASVGDRVTITCKSSQSLLYSGNQKNYLAWYQQKPGQSPKLLIYWASTRQSGVPDRFSGSGSGTDFTLTISSLQAEDFATYYCQQYYDTPWTFGGGTKVEIKR
no binding (tested: 100 nM rhCXCL16) | HC2LC3 (antibody, human IgG1, kappa, V domains shown, Humanized variant; human IgG1 / kappa constant domains) VH: AVQLVESGGGLVQPGGSLKISCAASGFTFSNAVMNWVRQASGKGLEWVGRIRTKPNNYATFYADSVKGRFTISRDDSKNTAYLQMNSLKTEDTAMYYCTAWTTEGIYWGQGTLVTVSS VL: DIQMTQSPSSLSASVGDRVTITCKSSQSLLYSGNQKNYLAWYQQKPGQSPKLLIYWASTRQSGVPDRFSGSGSGTDFTLTISSLQAEDFATYYCQQYYDTPWTFGGGTKVEIKR
no binding (tested: 100 nM rhCXCL16) | HC3LC4 (antibody, human IgG1, kappa, V domains shown, Humanized variant; human IgG1 / kappa constant domains) VH: EVQLVESGGGLVQPGGSLKLSCAASGFTFSNAVMNWVRQAPGKGLEWVGRIRTKPNNYATFYADSVKGRFTFSRDDSKNTAYLQMNILKTEDTAMYYCTAWTTEGIYWGQGTTVTVSS VL: DIQMTQSPSSLSASVGDRVTITCKSSQSLLYSGNQKNYLAWYQQKPGQSPKLLIYWASTRQSGVPSRFSGSGSGTDFTLTISSLQPEDLAIYYCQQYYDTPWTFGGGTKLELKR
